The source of these data is patent US20230140293A1.

Test [1] has as its target CH0505.w4.3 Env, Env-pseudotyped virus produced in 293T cells (HIV-1). Put plainly: cell-based or functional assay.
The target in test [2] is CH0505TF Env, Env-pseudotyped virus produced in 293T cells (HIV-1). Kind of test: cell-based or functional assay.
The target of test [3] is CH0505TF Env, pseudotyped virus produced in 293S GnTI- cells (HIV-1). Put plainly: cell-based or functional assay.
The target in test [4] is CH0505TF.G458Y Env, Env-pseudotyped virus produced in 293T cells (HIV-1). Put plainly: cell-based or functional assay.
In test [5] the target is CH0505TF.G458Y Env, pseudotyped virus produced in 293S GnTI- cells (HIV-1). Put plainly: cell-based or functional assay.
For test [6], the target named is CH0505TF.gly3.197 Env, Env-pseudotyped virus produced in 293T cells (HIV-1). Put plainly: cell-based or functional assay.
Test [7] deals with CH0505TF.gly3.197 Env, pseudotyped virus produced in 293S GnTI- cells (HIV-1). Kind of test: cell-based or functional assay.
Test [8] addresses CH0505TF.gly3.276 Env, Env-pseudotyped virus produced in 293T cells (HIV-1). Put plainly: cell-based or functional assay.
Test [9] has as its target CH0505TF.gly3.276 Env, pseudotyped virus produced in 293S GnTI- cells (HIV-1). Kind of test: cell-based or functional assay.
In test [10] the target is CH0505TF.gly3.461 Env, Env-pseudotyped virus produced in 293T cells (HIV-1). Put plainly: cell-based or functional assay.
Test [11] has as its target CH0505TF.gly3.461 Env, pseudotyped virus produced in 293S GnTI- cells (HIV-1). Put plainly: cell-based or functional assay.
Test [12] concerns the target CH0505TF.gly4 Env, Env-pseudotyped virus produced in 293T cells (HIV-1). Kind of test: cell-based or functional assay.
Test [13] deals with CH0505TF.gly4 Env, pseudotyped virus produced in 293S GnTI- cells (HIV-1). Kind of test: cell-based or functional assay.
The target of test [14] is HIV-1 426c.DM (N460D/N463D) Env on Env-pseudotyped virus produced in 293T cells (HIV-1). Kind of test: cell-based or functional assay.
For test [15], the target named is HIV-1 426c.DM (N460D/N463D) Env on Env-pseudotyped virus produced in 293s/GnTI-/- cells (Man5-enrichment) (HIV-1). Kind of test: cell-based or functional assay.
For test [16], the target named is HIV-1 426c.SM (N276D) Env on Env-pseudotyped virus produced in 293T cells (HIV-1). Put plainly: cell-based or functional assay.
The target in test [17] is HIV-1 426c.SM (N276D) Env on Env-pseudotyped virus produced in 293s/GnTI-/- cells (Man5-enrichment) (HIV-1). Put plainly: cell-based or functional assay.
The target of test [18] is HIV-1 426c.TM (N276D/N460D/N463D) Env on Env-pseudotyped virus produced in 293T cells (HIV-1). Kind of test: cell-based or functional assay.
The target of test [19] is HIV-1 426c.TM (N276D/N460D/N463D) Env on Env-pseudotyped virus produced in 293s/GnTI-/- cells (Man5-enrichment) (HIV-1). Kind of test: cell-based or functional assay.
In test [20] the target is HIV-1 Env 426c, Env-pseudotyped virus produced in 293S GnTI- cells (Man5-enriched) (HIV-1 clade C strain 426c). Kind of test: cell-based or functional assay.
For test [21], the target named is HIV-1 Env 426c, Env-pseudotyped virus produced in 293T cells (HIV-1 clade C strain 426c). Put plainly: cell-based or functional assay.
Test [22] concerns the target HIV-1 Env 426c.DM (N460D.N463D), Env-pseudotyped virus produced in 293S GnTI- cells (Man5-enriched) (HIV-1 clade C strain 426c). Kind of test: cell-based or functional assay.
Test [23] deals with HIV-1 Env 426c.DM (N460D.N463D), Env-pseudotyped virus produced in 293T cells (HIV-1 clade C strain 426c). Put plainly: cell-based or functional assay.
The target of test [24] is HIV-1 Env 426c.SM (N276D), Env-pseudotyped virus produced in 293S GnTI- cells (Man5-enriched) (HIV-1 clade C strain 426c). Put plainly: cell-based or functional assay.
Test [25] addresses HIV-1 Env 426c.SM (N276D), Env-pseudotyped virus produced in 293T cells (HIV-1 clade C strain 426c). Kind of test: cell-based or functional assay.
Test [26] deals with HIV-1 Env 426c.TM (N276D.N460D.N463D), Env-pseudotyped virus produced in 293S GnTI- cells (Man5-enriched) (HIV-1 clade C strain 426c). Put plainly: cell-based or functional assay.
Test [27] concerns the target HIV-1 Env 426c.TM (N276D.N460D.N463D), Env-pseudotyped virus produced in 293T cells (HIV-1 clade C strain 426c). Kind of test: cell-based or functional assay.
Test [28] addresses HIV-1 Env 426c.TM4 (S278R.G471S.N460D.N463D), Env-pseudotyped virus produced in 293S GnTI- cells (Man5-enriched) (HIV-1 clade C strain 426c). Kind of test: cell-based or functional assay.
The target in test [29] is HIV-1 Env 426c.TM4 (S278R.G471S.N460D.N463D), Env-pseudotyped virus produced in 293T cells (HIV-1 clade C strain 426c). Put plainly: cell-based or functional assay.
The target in test [30] is HIV-1 clade C strain 426c Env on Env-pseudotyped virus produced in 293T cells (HIV-1). Kind of test: cell-based or functional assay.
The target of test [31] is HIV-1 clade C strain 426c Env on Env-pseudotyped virus produced in 293s/GnTI-/- cells (Man5-enrichment) (HIV-1). Kind of test: cell-based or functional assay.
In the next test the target is CH505 M11 gp120 (HIV-1). Put plainly: ELISA, gp120 on plate.
The target in a further test is CH505 M5 gp120 (HIV-1). Put plainly: ELISA, gp120 on plate.
Test [32] deals with CH505 transmitted/founder (TF) gp120 (HIV-1). Kind of test: ELISA, gp120 on plate.
Test [33] deals with CH505 w020.14 gp120 (HIV-1). Put plainly: ELISA, gp120 on plate.
Test [34] deals with CH505 w030.28 gp120 (HIV-1). Put plainly: ELISA, gp120 on plate.
Test [35] addresses CH505 w078.15 gp120 (HIV-1). Put plainly: ELISA, gp120 on plate.
Test [36] has as its target CH505 w053.16 gp120 (HIV-1). Kind of test: ELISA, gp120 on plate.
Test [37] addresses CH0505TF Env, Env-pseudotyped virus produced in 293S GnTI- cells (Man5-enriched) (HIV-1). Put plainly: cell-based or functional assay.
In test [38] the target is CH0505TF.G458Y Env, Env-pseudotyped virus produced in 293S GnTI- cells (Man5-enriched) (HIV-1). Put plainly: cell-based or functional assay.
For test [39], the target named is CH0505TF.gly3.197 Env, Env-pseudotyped virus produced in 293S GnTI- cells (Man5-enriched) (HIV-1). Kind of test: cell-based or functional assay.
In test [40] the target is CH0505TF.gly3.276 Env, Env-pseudotyped virus produced in 293S GnTI- cells (Man5-enriched) (HIV-1). Put plainly: cell-based or functional assay.
Test [41] has as its target CH0505TF.gly3.461 Env, Env-pseudotyped virus produced in 293S GnTI- cells (Man5-enriched) (HIV-1). Kind of test: cell-based or functional assay.
For test [42], the target named is CH0505TF.gly4 Env, Env-pseudotyped virus produced in 293S GnTI- cells (Man5-enriched) (HIV-1). Kind of test: cell-based or functional assay.

On to IgG1b12 (antibody), for which the IC50 (µg/ml) in TZM-bl in test [1] was under 0.02 µg/mL; in [2], 0.98 µg/mL; in [3], 0.61 µg/mL; in test [4], 0.1 µg/mL; in test [5] it was 0.22 µg/mL; in [6] it was 0.68 µg/mL. Further, the IC50 (µg/ml) in TZM-bl in [7] was determined as 0.26 µg/mL; in [8], 0.007 µg/mL; in test [9], 0.01 µg/mL; in test [10] it was 0.011 µg/mL; in [11] it was 0.02 µg/mL; in test [12] it was 0.004 µg/mL. Besides, the IC50 (µg/ml) in TZM-bl is 0.001 µg/mL in [13]; over 25 µg/mL in test [20]; over 25 µg/mL in [21]; over 25 µg/mL in [22]; over 25 µg/mL in test [23]; over 25 µg/mL in test [24]. For the same substance, the IC50 (µg/ml) in TZM-bl in test [25], in test [26], in [27], in test [28] and in [29] was over 25 µg/mL in each case. The ID50/IC50 in TZM-bl in test [14], in test [15], in test [16], in [17], in test [18] and in test [19] was over 25 µg/mL each time. The ID50/IC50 in TZM-bl in test [30] and in [31] was over 25 µg/mL throughout.

In the case of “CH103 lineage intermediate ancestor IA6 (antibody)”, the log AUC in the test with CH505 M11 gp120 (HIV-1) came to 10 log AUC; with CH505 M5 gp120 (HIV-1), 3.3 log AUC; in test [32], 9.1 log AUC; in test [33], 7.9 log AUC; in test [34], 6.3 log AUC; in test [35], 1 log AUC.

Turning to “CH103 lineage intermediate ancestor IA3 (antibody)”, the log AUC with CH505 M11 gp120 (HIV-1) stood at 11.8 log AUC; with CH505 M5 gp120 (HIV-1), 6.8 log AUC; in [32], 11 log AUC; in test [33] it was 9.5 log AUC; in [34], 7.7 log AUC; in test [36] it was 1.1 log AUC. The log AUC in [35] was 3 log AUC.

Regarding “CH103 lineage intermediate ancestor IA7 (antibody)”, the log AUC with CH505 M11 gp120 (HIV-1) amounted to 10.1 log AUC; with CH505 M5 gp120 (HIV-1), 2.3 log AUC; in test [32] it was 9.2 log AUC; in [33], 7.2 log AUC; in test [34], 3.5 log AUC; in test [35] it was 0.7 log AUC.

“CH103 lineage intermediate ancestor IA4 (antibody)”: the log AUC in the test with CH505 M11 gp120 (HIV-1) is 10.5 log AUC; with CH505 M5 gp120 (HIV-1) it was 3.8 log AUC; in test [32], 10.1 log AUC; in [33] it was 8.6 log AUC; in [34], 6.5 log AUC; in test [36], 0.2 log AUC. This substance also gave a log AUC in [35] of 1.3 log AUC.

On to “CH103 lineage intermediate ancestor IA8 (antibody)”, for which the log AUC with CH505 M11 gp120 (HIV-1) came to 6.2 log AUC; in the test with CH505 M5 gp120 (HIV-1), 0.6 log AUC; in [32], 5.5 log AUC; in test [33], 3.4 log AUC; in test [34], 1.6 log AUC.

PG9 (antibody): the IC50 (µg/ml) in TZM-bl was determined as 1.8 µg/mL in test [1]; 0.11 µg/mL in [37]; 0.19 µg/mL in test [2]; 0.04 µg/mL in test [38]; 0.1 µg/mL in test [4]; 0.06 µg/mL in [39]. Further, the IC50 (µg/ml) in TZM-bl was found to be 0.24 µg/mL in test [6]; 0.04 µg/mL in [40]; 0.17 µg/mL in [8]; 0.05 µg/mL in [41]; 0.22 µg/mL in test [10]; 0.02 µg/mL in test [42]. The IC50 (µg/ml) in TZM-bl in [12] is 0.21 µg/mL; in test [20] it was over 5 µg/mL; in test [21] it was over 5 µg/mL; in [22], over 5 µg/mL; in [23], over 5 µg/mL; in test [24], over 5 µg/mL. The IC50 (µg/ml) in TZM-bl in test [25], in test [26], in test [27], in test [28] and in test [29] was over 5 µg/mL each time. Moreover, the ID50/IC50 in TZM-bl in test [14], in [15], in test [16], in [17], in [18] and in test [19] was over 5 µg/mL in each case. The ID50/IC50 in TZM-bl in test [30] and in test [31] was over 5 µg/mL each time.
